From patent publication US6524826B1, “Polynucleotides encoding cortistatin polypeptides” (Human Genome Sciences, Inc., priority 1996, dated 2003) come the findings set out here.

For one assay, the system named is CA1 neurons. In words: Population Spike (PS) amplitudes in CA1 neurons in vivo. As to conditions: microiontophoretic application of 1 mg ml^−1. The text has this: (§1) For example, one can measure Cortistatin activity by manually depolarizing a CA1 neuron to about −65 mV (resting potential at about −70 mV) to elicit action potential firing. […] One can measure Population Spike (PS) amplitudes in CA1 neurons in vivo, by generating stimulus response curves and relating the PS amplitude monotonically to stimulus intensity tested at three response levels: threshold, half-maximal, and maximal. […] Another assay for polypeptides having Cortistatin activity is the effect of intracerebroventricular administration to male Sprague—Dawley rats, anesthetized with halothane, of the polypeptide in question on the sleep—wake cycle of the rat. An active polypeptide would increase the period of slow wave sleep and decrease REM sleep.

The subject of another assay is CA1 neuron. Put plainly: action potential firing of a manually depolarized CA1 neuron. The assay is classed as cell-based. As to conditions: superfusion by 1 μM; CA1 neuron depolarized to about −65 mV.
Excerpt: as §1

B1: Human Cortistatin: Human Cortistatin polypeptide, brain neuropeptide; mature protein amino acid residues about 1 to about 86 in SEQ ID NO:2 (protein)
chain: MPLSPGLLLLLLSGATATAALPLEGGPTGRDSEHMQEAAGIRKSSLLTFLAWWFEWTSQASAGPLIGEEAREVARRQEGAPPQQSA
modifications: Human Cortistatin
For the molecule B1, the “PS amplitudes in CA1” value in the assay on CA1 neurons is listed as “significantly decrease PS amplitudes”. Further, the action potential discharge entry with CA1 neuron was “abolish the action potential discharge”.
